According to patent US20100311648A1 (AstraZeneca / MedImmune, published 2010):
Positions of bridges follow the written chain, without caps; N, C: chain ends. Non-standard residues stand in square brackets, D forms with d. dPhe(2-CF3) = N[C@H](Cc1ccccc1C(F)(F)F)C(=O)O; dPhe(4-CN) = N#Cc1ccc(C[C@@H](N)C(=O)O)cc1; dPhe(2-Cl) = N[C@H](Cc1ccccc1Cl)C(=O)O; dPhe(2-Me) = Cc1ccccc1C[C@@H](N)C(=O)O; dPhe(2-F) = N[C@H](Cc1ccccc1F)C(=O)O; Orn = NCCC[C@H](N)C(=O)O

Experiments:
[1] = molecular target: T1, human melanocortin-4 receptor (human, UniProt P32245 1-332); test: cell-based or functional assay
T1 sequence (P32245 whole entry): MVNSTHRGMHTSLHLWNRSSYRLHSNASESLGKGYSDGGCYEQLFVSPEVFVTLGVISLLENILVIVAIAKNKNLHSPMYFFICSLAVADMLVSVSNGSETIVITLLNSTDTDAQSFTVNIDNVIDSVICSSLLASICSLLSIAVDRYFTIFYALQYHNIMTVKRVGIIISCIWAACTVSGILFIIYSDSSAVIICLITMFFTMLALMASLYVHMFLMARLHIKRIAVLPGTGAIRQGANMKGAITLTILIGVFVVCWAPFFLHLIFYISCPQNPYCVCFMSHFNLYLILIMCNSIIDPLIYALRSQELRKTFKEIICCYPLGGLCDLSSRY

[2] = molecular target: T1, human melanocortin-4 receptor; test: [I125]-NDP-α-MSH competition, hMC4-R HEK-293 membranes
Procedure: (§1) A competitive inhibition binding assay was performed for exemplified peptides according to the invention using membrane homogenates prepared from HEK-293 cells that express recombinant hMC4-R, hMC3-R, or hMC5-R, and from B-16 mouse melanoma cells (containing endogenous MC1-R). In some instances, HEK-293 cells that express recombinant hMC1-R were employed. Assays were performed in 96 well GF/B Millipore multiscreen filtration plates (MAFB NOB10) pre-coated with 0.5% bovine serum albumin (Fraction V). […] After incubation for 60 minutes at 37° C., the assay mixture was filtered and the membranes washed three times with ice-cold buffer. Filters were dried and counted in a gamma counter for bound radioactivity. […] Each assay was conducted in triplicate and the actual mean values are described, with results less than 0% reported as 0%. Ki values for test peptides of the present invention were determined using Graph-Pad Prism® curve-fitting software.

melanocortin-1 receptor = molecular target: T2, melanocortin-1 receptor (mouse (B-16 melanoma cells); in some …, UniProt Q01727 1-315); test: [I125]-NDP-α-MSH competition, MC1-R membranes
T2 construct: whole, on cells; membrane homogenates; also called MC1-R; mouse B16 MC1-R
T2 sequence (Q01727 whole entry): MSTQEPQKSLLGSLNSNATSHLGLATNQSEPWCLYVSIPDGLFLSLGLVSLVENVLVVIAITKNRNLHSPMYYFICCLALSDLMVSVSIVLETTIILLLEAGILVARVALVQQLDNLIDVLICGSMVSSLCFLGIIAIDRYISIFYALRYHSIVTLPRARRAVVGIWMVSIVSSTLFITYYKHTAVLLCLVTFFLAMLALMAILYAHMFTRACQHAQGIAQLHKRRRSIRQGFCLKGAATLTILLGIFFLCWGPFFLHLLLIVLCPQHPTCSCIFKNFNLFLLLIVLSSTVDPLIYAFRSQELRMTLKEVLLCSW
Procedure: as §1

Binder | EC50, cAMP, 0.1 ng/mL Doxycycline [1] [nM] | EC50, cAMP, 10 ng/mL Doxycycline [1] [nM] | Intrinsic Activity, cAMP, 0.1 ng/mL Doxycycline [1] [%] | Intrinsic Activity, cAMP, 10 ng/mL Doxycycline [1] [%] | Ki [2] [nM] | Ki (melanocortin-1 receptor) [nM]
RDPXRWK (N-terminal Ac; D-Phe(4-F) 4; lactam Asp 2-Lys 7; C-terminal NH2, also called No. 103) [Ac-Arg-cyclo(Asp-Pro-D-Phe(4-F)-Arg-Trp-Lys)-NH2] | 1 | 0.13 | 32 | 100 | 4 | 
Ac-RDN[dPhe(4-CN)]RWK-NH2 (lactam 2-7, also called No. 89) [Ac-Arg-cyclo(Asp-Asn-D-Phe(4-CN)-Arg-Trp-Lys)-NH2] |  | 17 | 6 | 87 | 48 | 
RDQXRWK (N-terminal Ac; D-Phe(4-CN) 4; lactam Asp 2-Lys 7; C-terminal NH2, also called No. 90) [Ac-Arg-cyclo(Asp-Gln-D-Phe(4-CN)-Arg-Trp-Lys)-NH2] | 4 | 0.283 | 31 | 96 | 5 | 
Ac-R[Orn]N[dPhe(4-CN)]RWE-NH2 (lactam 2-7, also called No. 91) [Ac-Arg-cyclo(Orn-Asn-D-Phe(4-CN)-Arg-Trp-Glu)-NH2] | 1 | 0.265 | 18 | 96 | 4 | 
XDQXRWK (N-terminal Ac; D-Arg 1; D-Phe(4-CN) 4; lactam Asp 2-Lys 7; C-terminal NH2, also called No. 81) [Ac-D-Arg-cyclo(Asp-Gln-D-Phe(4-CN)-Arg-Trp-Lys)-NH2] | 4 | 0.45 | 23 | 85 | 13 | 
Ac-R[Orn]N[dPhe(2-CF3)]RWE-NH2 (lactam 2-7) [Ac-Arg-cyclo(Orn-Asn-D-Phe(2-CF3)-Arg-Trp-Glu)-NH2] | 1 | 0.18 | 50 | 112 | 5 | 
Ac-REQ[dPhe(2-Cl)]RW[Orn]-NH2 (lactam 2-7, also called No. 34) [Ac-Arg-cyclo(Glu-Gln-D-Phe(2-Cl)-Arg-Trp-Orn)-NH2] | 1 | 0.137 | 79 | 97 | 7 | 128
Ac-RES[dPhe(2-F)]RW[Orn]-NH2 (lactam 2-7, also called No. 58) [Ac-Arg-cyclo(Glu-Ser-D-Phe(2-F)-Arg-Trp-Orn)-NH2] | 5 | 0.25 | 67 | 100 |  | 138
Ac-REA[dPhe(4-CN)]RW[Orn]-NH2 (lactam 2-7; SMILES CC(=O)N[C@@H](CCCNC(=N)N)C(=O)N[C@H]1CCC(=O)NCCC[C@@H](C(N)=O)NC(=O)[C@H](Cc2c[nH]c3ccccc23)NC(=O)[C@H](CCCNC(=N)N)NC(=O)[C@@H](Cc2ccc(C#N)cc2)NC(=O)[C@H](C)NC1=O, also called No. 41) [Ac-Arg-cyclo(Glu-Ala-D-Phe(4-CN)-Arg-Trp-Orn)-NH2] |  | 0.8 | 5 | 84 | 3 | 4300
Ac-REQ[dPhe(2-Me)]RW[Orn]-NH2 (lactam 2-7, also called No. 110) [Ac-Arg-cyclo(Glu-Gln-D-Phe(2-Me)-Arg-Trp-Orn)-NH2] | 0.6 | 0.06 | 84 | 105 |  | 105
Ac-R[Orn]N[dPhe(2-Cl)]RWE-NH2 (lactam 2-7) [Ac-Arg-cyclo(Orn-Asn-D-Phe(2-Cl)-Arg-Trp-Glu)-NH2] | 0.72 | 0.065 |  | 100 | 7 | 
